# Test results taken from paper PMC6555819, “Comprehensive study of nuclear receptor DNA binding provides a revised framework for understanding receptor specificity”.
# Target: RARg:RXRa (Homo sapiens, UniProt P13631;P19793 full;full)
# Experiment: no ligand; PBM; 270 nM : 90 nM RXRa; PBS pH 7.4, 2% milk, 0.02% Triton X-100, 1 mM DTT, BSA, 0.4 mg/ml salmon testes DNA
# Settings: tags: His kept;His cleaved; copies: 1;1; label: surface-attached array probe
# In short: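 Binding buffer was PBS pH 7.4 with 2% milk, 0.02% Triton X-100, 1 mM DTT, 0.2 mg/mL BSA and 0.4 mg/ml salmon testes DNA. In it, ligand-free nuclear receptor dimers were incubated 1 h on custom Agilent 4×180K protein-binding microarrays carrying double-stranded probes. Antibodies against each partner (one per run) detected binding, and z-scores were calculated against random background probes after regression normalization of scanned fluorescence.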
# Chain of RARg:RXRa (P13631 whole entry, chain 1 of 2): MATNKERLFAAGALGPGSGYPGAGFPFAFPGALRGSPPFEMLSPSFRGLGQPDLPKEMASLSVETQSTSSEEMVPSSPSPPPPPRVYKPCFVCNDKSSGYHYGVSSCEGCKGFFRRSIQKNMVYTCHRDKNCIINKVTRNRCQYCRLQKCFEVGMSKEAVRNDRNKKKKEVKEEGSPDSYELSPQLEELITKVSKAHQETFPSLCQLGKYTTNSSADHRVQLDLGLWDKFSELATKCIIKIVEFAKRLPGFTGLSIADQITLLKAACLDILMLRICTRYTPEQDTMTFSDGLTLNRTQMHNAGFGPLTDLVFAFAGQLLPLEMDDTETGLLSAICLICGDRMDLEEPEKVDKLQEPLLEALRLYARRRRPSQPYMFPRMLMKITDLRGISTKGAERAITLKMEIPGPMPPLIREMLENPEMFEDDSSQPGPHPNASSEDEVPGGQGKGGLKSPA
# Chain of RARg:RXRa (P19793 whole entry, chain 2 of 2): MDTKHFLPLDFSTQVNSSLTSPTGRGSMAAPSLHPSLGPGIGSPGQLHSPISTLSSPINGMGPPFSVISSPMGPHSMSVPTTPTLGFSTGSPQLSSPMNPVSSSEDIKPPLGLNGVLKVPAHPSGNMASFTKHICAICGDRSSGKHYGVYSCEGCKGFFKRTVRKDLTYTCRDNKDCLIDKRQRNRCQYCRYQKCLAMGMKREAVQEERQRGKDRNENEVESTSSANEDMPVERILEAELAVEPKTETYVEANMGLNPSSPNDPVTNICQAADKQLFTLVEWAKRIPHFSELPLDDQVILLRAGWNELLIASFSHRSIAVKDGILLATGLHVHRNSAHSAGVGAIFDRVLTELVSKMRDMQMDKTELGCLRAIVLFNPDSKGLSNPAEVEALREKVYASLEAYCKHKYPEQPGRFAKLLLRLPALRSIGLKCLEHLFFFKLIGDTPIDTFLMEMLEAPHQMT
row,Binder,binding signal
1,NRC3_wobSeed51_DR2_A12T_o1 (dsDNA) DNA 1: GCCCTCGGAGGTCAGAAGGTCAGAGCTGTCCGCTTTGCGATTGACAGCGTAGAATGAAGG DNA 2: CCTTCATTCTACGCTGTCAATCGCAAAGCGGACAGCTCTGACCTTCTGACCTCCGAGGGC,7.6 PBM z-score against 500 random probes
2,NRC3_wobSeed122_DR5_T9G_o1 (dsDNA) DNA 1: GCGCTAGTGGGTCAGTAAAAGGTCACACACCGGTCGGCGATTGACAGCGTAGAATGAAGG DNA 2: CCTTCATTCTACGCTGTCAATCGCCGACCGGTGTGTGACCTTTTACTGACCCACTAGCGC,7.46 PBM z-score against 500 random probes
3,NRC3_wobSeed138_DR5_G15A_o1 (dsDNA) DNA 1: GCGATACAGGGTCAACTAGAGGCCAGAGTATGGAAAGCGATTGACAGCGTAGAATGAAGG DNA 2: CCTTCATTCTACGCTGTCAATCGCTTTCCATACTCTGGCCTCTAGTTGACCCTGTATCGC,7.73 PBM z-score against 500 random probes
4,NRC3_wobSeed138_DR5_C23G_o1 (dsDNA) DNA 1: GCGATACAGGGTCAGCTAGAGGGCAGAGTATGGAAAGCGATTGACAGCGTAGAATGAAGG DNA 2: CCTTCATTCTACGCTGTCAATCGCTTTCCATACTCTGCCCTCTAGCTGACCCTGTATCGC,7.69 PBM z-score against 500 random probes
5,NRC3_wobSeed61_DR2_G15C_o1 (dsDNA) DNA 1: GCCGTCCAAGGTCACCAGGTCAGTGAAAGCGACGTGGCGATTGACAGCGTAGAATGAAGG DNA 2: CCTTCATTCTACGCTGTCAATCGCCACGTCGCTTTCACTGACCTGGTGACCTTGGACGGC,7.32 PBM z-score against 500 random probes
6,NRC3_wobSeed109_DR4_A16G_o1 (dsDNA) DNA 1: GCCGTCCAAGGTCATGGGAGGTCAGTGAAGACAGATGCGATTGACAGCGTAGAATGAAGG DNA 2: CCTTCATTCTACGCTGTCAATCGCATCTGTCTTCACTGACCTCCCATGACCTTGGACGGC,7.38 PBM z-score against 500 random probes
7,NRC3_wobSeed134_DR5_T20A_o1 (dsDNA) DNA 1: GCGCTGCTAGGTCAACTGAAGGTCAGCTAAAGCTCGGCGATTGACAGCGTAGAATGAAGG DNA 2: CCTTCATTCTACGCTGTCAATCGCCGAGCTTTAGCTGACCTTCAGTTGACCTAGCAGCGC,7.99 PBM z-score against 500 random probes
8,NRC3_wobSeed134_DR5_T20G_o1 (dsDNA) DNA 1: GCGCTGCTAGGTCAACTGAGGGTCAGCTAAAGCTCGGCGATTGACAGCGTAGAATGAAGG DNA 2: CCTTCATTCTACGCTGTCAATCGCCGAGCTTTAGCTGACCCTCAGTTGACCTAGCAGCGC,7.66 PBM z-score against 500 random probes
9,NRC3_wobSeed134_DR5_C24G_o1 (dsDNA) DNA 1: GCGCTGCTAGGTCAACTGATGGTGAGCTAAAGCTCGGCGATTGACAGCGTAGAATGAAGG DNA 2: CCTTCATTCTACGCTGTCAATCGCCGAGCTTTAGCTCACCATCAGTTGACCTAGCAGCGC,4.58 PBM z-score against 500 random probes
10,NRC3_wobSeed125_DR5_T24C_o1 (dsDNA) DNA 1: GCCCTTACGGGTCACTGACAGGTCATAGCATTTGGAGCGATTGACAGCGTAGAATGAAGG DNA 2: CCTTCATTCTACGCTGTCAATCGCTCCAAATGCTATGACCTGTCAGTGACCCGTAAGGGC,7.68 PBM z-score against 500 random probes
11,NRC3_wobSeed136_DR5_C23G_o1 (dsDNA) DNA 1: GCTAGCCTAGGTCATTCAGGGGGCAGTATAGAAAGCGCGATTGACAGCGTAGAATGAAGG DNA 2: CCTTCATTCTACGCTGTCAATCGCGCTTTCTATACTGCCCCCTGAATGACCTAGGCTAGC,7.73 PBM z-score against 500 random probes
12,NRC3_wobSeed136_DR5_T8A_o1 (dsDNA) DNA 1: GCTAGCCAAGGTCATTCAGGGGCCAGTATAGAAAGCGCGATTGACAGCGTAGAATGAAGG DNA 2: CCTTCATTCTACGCTGTCAATCGCGCTTTCTATACTGGCCCCTGAATGACCTTGGCTAGC,7.41 PBM z-score against 500 random probes
13,NRC3_wobSeed133_DR5_A8G_o1 (dsDNA) DNA 1: GCCGTCCGAGGTCAATGCTAGGTCAGTGAAAGCATTGCGATTGACAGCGTAGAATGAAGG DNA 2: CCTTCATTCTACGCTGTCAATCGCAATGCTTTCACTGACCTAGCATTGACCTCGGACGGC,8.1 PBM z-score against 500 random probes
